Results: the DeepSol protein solubility set

Experiment: soluble on expression in E. coli; label from the status in PepcDB or PDB records
For “MAEKKKDEKETKETENFILKLSAETVLFSNAKLGDEVTTTVLKMTNPTTDKCAFKVKCTSNDLFKIKTPVGYIKPDETIDIPLCHNPGKAIPENNKQYFAFYYIKTKEDGPARDAWKNHKPDGMKRIYISFKKGDEKGDEKKDEKKEEKKEEKKEEKKEDKKDDKKEAKKEEKKEEKKEEKKEEKKEEKKEEKKEEKNDENKEEKKEEKKDEKKEEKKVEEAKK”, the “soluble on expression in E. coli” value was “soluble”. For “MSQPRTVTVLGATGSIGHSTLDLIERNLDRYQVIALTANRNVKDLADAAKRTNAKRAVIADPSLYNDLKEALAGSSVEAAAGADALVEAAMMGADWTMAAIIGCAGLKATLAAIRKGKTVALANKESLVSAGGLMIDAVREHGTTLLPVDSEHNAIFQCFPHHNRDYVRRIIITASGGPFRTTSLAEMATVTPERAVQHPNWSMGAKISIDSATMMNKGLELIEAFHLFQIPLEKFEILVHPQSVIHSMVEYLDGSILAQIGSPDMRTPIGHTLAWPKRMETPAESLDFTKLRQMDFEAPDYERFPALTLAMESIKSGGARPAVMNAANEIAVAAFLDKKIGFLDIAKIVEKTLDHYTPATPSSLEDVFAIDNEARIQAAALMESLPA”, the “soluble on expression in E. coli” value was “soluble”. For “MTENELLTRCGGKCELCGSDVELAIYDLPASDGHENEIMICENCSSQIAAPDTMDMNHWRCLNDSMWSQVPAVQVMSYRMLKRLSGESWAQDLLDMLYLEDDLRAWGDAEAAAASDDTPPTLDSNGAVLNAGDTVVIIKDLNVKGTSFVAKRGTAVRNIALTNNPEHIEGRVNGTRIVILTCFVKKSLEHHHHHH”, the “soluble on expression in E. coli” value was “soluble”. For “GMWDETELGLYKVNEYVDARDTNMGAWFEAQVVRVTRKAPSRDEPCSSTSRPALEEDVIYHVKYDDYPENGVVQMNSRDVRARARTIIKWQDLEVGQVVMLNYNPDNPKERGFWYDAEISRKRETRTARELYANVVLGDDSLNDCRIIFVDEVFKIERPGE”, the “soluble on expression in E. coli” value was “soluble”. In the case of “MSKIELKQLSFAYDNQEALLFDQANITMDTNWKLGLIGRNGRGKTTLLRLLQKQLDYQGEILHQVDFVYFPQTVAEEQQLTYYVLQEVTSFEQWKLERELTLLNVDPEVLWRPFSSLSGGEKTKVLLGLLFIEENAFPLIDEPTNHLDLAGRQQVAEYLKKKKHGFILVSHDRAFVDEVVDHILAIEKSQLTLYQGNFSIYEEQKKLRDAFELAENEKIKKEVNRLKETARKKAEWSMNREGDKYGNAKEKGSGAIFDTGAIGARAARVMKRSKHIQQRAETQLAEKEKLLKDLEYIDSLSMDYQPTHHKTLLTVEELRLGYEKNWLFAPISFSINAGEIVGITGKNGSGKSSLIQYLLDNFSGDSEGEATLAHQLTISYVRQDYEDNQGTLSEFAEKNQLDYTQFLNNLRKLGMERAVFTNRIEQMSMGQRKKVEVAKSLSQSAELYIWDEPLNYLDVFNHQQLEALILSVKPAMLVIEHDAHFMKKITDKKIVLKS”, the “soluble on expression in E. coli” value was “not soluble”. With “MTPRSLVRIVGVVVATTLALVSAPAGGRAAHADPCSDIAVVFARGTHQASGLGDVGEAFVDSLTSQVGGRSIGVYAVNYPASDDYRASASNGSDDASAHIQRTVASCPNTRIVLGGYSQGATVIDLSTSAMPPAVADHVAAVALFGEPSSGFSSMLWGGGSLPTIGPLYSSKTINLCAPDDPICTGGGNIMAHVSYVQSGMTSQAATFAANRLDHAG” the “soluble on expression in E. coli” value was “not soluble”. In the case of “MSKNERMVGISRRTLVKSTAIGSLALAAGGFSLPFTLRNAAAAVQQAREKVVWGACSVNCGSRCALRLHVKDNEVTWVETDNTGSDEYGNHQVRACLRGRSIRRRINHPDRLNYPMKRVGKRGEGKFERISWDEALDTIASSLKKTVEQYGNEAVYIQYSSGIVGGNMTRSSPSASAVKRLMNCYGGSLNQYGSYSTAQISCAMPYTYGSNDGNSTTDIENSKLVVMFGNNPAETRMSGGGITYLLEKAREKSNAKMIVIDPRYTDTAAGREDEWLPIRPGTDAALVAGIAWVLINENLVDQPFLDKYCVGYDEKTLPADAPKNGHYKAYILGEGDDKTAKTPQWASQITGIPEDRIIKLAREIGTAKPAYICQGWGPQRQANGELTARAIAMLPILTGNVGISGGNSGARESTYTITIERLPVLDNPVKTSISCFSWTDAIDHGPQMTAIRDGVRGKDKLDVPIKFIWNYAGNTLVNQHSDINKTHEILQDESKCEMIVVIENFMTSSAKYADILLPDLMTVEQEDIIPNDYAGNMGYLIFLQPVTSEKFERKPIYWILSEVAKRLGPDVYQKFTEGRTQEQWLQHLYAKMLAKDPALPSYDELKKMGIYKRKDPNGHFVAYKAFRDDPEANPLKTPSGKIEIYSSRLAEIARTWELEKDEVISPLPVYASTFEGWNSPERRTFPLQLFGFHYKSRTHSTYGNIDLLKAACRQEVWINPIDAQKRGIANGDMVRVFNHRGEVRLPAKVTPRILPGVSAMGQGAWHEANMSGDKIDHGGCVNTLTTLRPSPLAKGNPQHTNLVEIEKI”, the “soluble on expression in E. coli” value was “soluble”. For “MGHHHHHHSHMSQPPLLPASAETRKFTRALSKPGTAAELRQSVSEVVRGSVLLAKPKLIEPLDYENVIVQKKTQILNDCLREMLLFPYDDFQTAILRRQGRYICSTVPAKAEEEAQSLFVTECIKTYNSDWHLVNYKYEDYSGEFRQLPNKVVKLDKLP”, the “soluble on expression in E. coli” value was “not soluble”. In the case of “MCMQAQDVTIRDQEIKLGQFIKLANLVETGGAAKEVIAEGRVTVNGAVDTRRGKTLRDGDVVCIGTACARVVAGAADDDDYFDEKTANDDFDPEVWRNM”, the “soluble on expression in E. coli” value was “not soluble”. In the case of “MSLKRVMTLADIALLANVSKSTASRALRNNPLINKNTRELVQEIALKHNFKVNATASNLRTQKTNTIAVVVMFDQKSGQAISDPFLMEILGTIADELTHFGYDMLLTTTKTATHDWYSYYYESKRADGLIIIGQGEHDQRIEALISTDLPFIVWGTEIHEKNYTTVGSDNRKGGYLAVSHLIEQGCQRIAFLGDINHTEVEQRWLGYQDAVAEAGLVVEDKLQIKTDFTSVDGYQSLRDHCLNDDVPIDGVFAVSDAIALGATKYLFEQNITIPKQVAVIGFDDISMSEYCSPSLSTIRQNTAAGGRLLVKLMLDKLNHLPVDSQLLNVEMIQRQSSEGHHHHHH”, the “soluble on expression in E. coli” value was “soluble”. For “MKVWITGAGGMMGSHLAEMLLAAGHDVYATYCRPTIDPSDLQFNGAEVDITDWCSVYDSIATFRPDAVFHLAAQSYPAVSWARPVETLTTNMVGTAIVFEALRRVRPHAKIIVAGSSAEYGFVDPSEVPINERRELRPLHPYGVSKAATDMLAYQYHKSYGMHTVVARIFNCTGPRKVGDALSDFVRRCTWLEHHPEQSAIRVGNLKTKRTIVDVRDLNRALMLMLDKGEAGADYNVGGSIAYEMGDVLKQVIAACKRDDIVPEVDPALLRPTDEKIIYGDCSKLAAITGWQQEICLTQTIADMFDYWRSKSESALMV”, the “soluble on expression in E. coli” value was “not soluble”. In the case of “MEFRVYAGREELAGLVKPMRGGDVEIRIQPVERKVLEFVPLKAETAIEERKSIIVGLDPGITVGIAAIDLDGNIISVYSEKNMALSEIVRFISELGHPIIVATDVNPAPGLVEKIARSFKAQLFVPRESLKVEEKNELLKNLGISVSDDHQRDALEHHHHHH”, the “soluble on expression in E. coli” value was “not soluble”. With “MSLADNRDELKETLRTLLRDNPDLVLEVLREHSETVLEIAQQGANQRRRKVLVAQWKTDLEDPKKVNLADRPVRGEANAPVTVVAYSDFTCPYCQQAAGTVEMLLANYKGKVRYVFKQMPLETHENARTASNYYVAASLQDPAKAWKLYEAVFADRDRLVTEGEPFLKKVAQEAGLDMQRLATDIKGRKVKALIEEDMAEARKLGVQGTPYFLVNDLVVRGALPLDLFSDAVDMALEKAGAKEGHHHHHH” the “soluble on expression in E. coli” value was “soluble”. With “MGSDKIHHHHHHMHDKFLNYFDETARQGSIRKAAAVLNMSSSSLNRKIISTENRLGIRLFDRHADGVTLTEAGVVVLEHCRNTLFDYQRIVNMVEDIRDMRTGHIDILTLDSIALSVLPEVLDDFQDAYPQVAYTIQTDEPHAVMQAVANGTADIGLSFSNDLHPDVRCQAEKSTPIGAIMAHDHPLAERDLIEVGDLAPYQLIRSYDSQTHRSFVNEAVSSLGVQLSTQMVTNSLPLAKTMILNGRGVGIYSKIGFIEEIEDGRLRYVAINSPLLRELRIGVLISARTGLLPVQHLLARALSKSLRSLRLDS” the “soluble on expression in E. coli” value was “not soluble”. In the case of “MGSDKIHHHHHHMGNKPSGRHYFAEGITNRGYISLLPNMMSEWERTYVLMGGPGTGKSTTIKMIGLDLLDRGYEVDFLRSARDPDSMAGVLIRRFNWAILDHYEIAPLHWRAPGVIEHFVDFSKYCNQGKLEQQRLRVLELGEKIKRGQQRIGEILAEEFGGRIRERFYAKADEGRPWLPKLYASDLFKEAKGPWSKAQDALKKIQKSAVQSFFLHGINPEGWLNLAPYFLTDYDQIRFDGEEAHEAMEWVLQEAEQLGQVIDIVLHPLYPDEILGIVFPERNLAIWQGDPEHLEDQGLGCPFSNDLKKALLDTQRLRDKLKAIYTKTVDFDQVDSMKTDLLSSILRDMDKKVHTID”, the “soluble on expression in E. coli” value was “not soluble”. With “GMQKTAFIWDLDGTLLDSYEAILSGIEETFAQFSIPYDKEKVREFIFKYSVQDLLVRVAEDRNLDVEVLNQVRAQSLAEKNAQVVLMPGAREVLAWADESGIQQFIYTHKGNNAFTILKDLGVESYFTEILTSQSGFVRKPSPEAATYLLDKYQLNSDNTYYIGDRTLDVEFAQNSGIQSINFLESTYEGNHRIQALADISRIFETK” the “soluble on expression in E. coli” value was “soluble”. For “MGSDKIHHHHHHMKKLFVLFLAVLSVLVLAEVKNPDTIIDATIGEPDTLDPHFAYDTASGEVIYNVYENLIAYKGESLTEFEPRLAERWEILDDGKTYKFYIRKGVKFHEGGDLTPEDVEYSFERGLIFDPTAGPMWMLWEALFGVDSLETFVEEKIGKPYSELFDENGEPLPEYRDALIKIYTDYIDPAIEVEGDAVVFHLVRPFAPFMYILAQSASWSAVLDKEWCIEIGCWDGRADTWWKYHDIRKEDSPLYARMNGTGPFKFVEWDRAQQKVILERNDNYWREPAKIKRVIIWGIDEWSTRRAMFLQGDADICAVPTQYLEQVEGKPGVTVVKGLPELAVTSLHFAWNVPEDSKYIGSGKLDGNGIPPDFFSDENVRKAFIYAFDYDTFINEVLKGLGRKIPTDLPEGLLGFNEELLNDPDAPHFDIVKATEYFKKAWNGEVWKKGFKITLLYNTGNEVRRQAAEMLKAYIEMINPKFKVEVRGVQWPTYLDATKRGEVPAFIIGWLADYPDPHNFIFTYYHSAGVYSGRQGENFRKFVSTPHPDLGGRSLDELIEEAIAKTDPAERQALYEEIQRFAMKHALGMPLYQPLGVRVQRSWVKGWYHNPMRPGDDYYVLWKAEE”, the “soluble on expression in E. coli” value was “not soluble”. With “MLCIDSSRDLTYGVVMTFKVMEFQKGRLQNLYWKRDVCASCKGNQNFVCLKKQVCAIRTPSCKGRGGSVGCSLGIQLAFSGTDKHLAVLNSWYEVDNLKQYSLYGLYSNLKSSLTNQLNNFF” the “soluble on expression in E. coli” value was “soluble”. For “FEKMKKEVEEILYNLKKEGGKYHCILAFSGGKDSVLALKLLKEKFKLNPLCVMVDNKYMAKEAIENALNVTKHYQVDLMILNRDYTDLFEDAIKRGESPCRRCSRLILREVWRVTKLLGLKYIITGHELP”, the “soluble on expression in E. coli” value was “not soluble”.
